Experiment [1] addresses T1, c-JMJD5 (Homo sapiens, UniProt Q8N371).
T1 construct: JMJD5 (residues 183–416, c-JMJD5) lacking the N-terminal domain; made in house
Kind of experiment: Biacore surface plasmon resonance binding of c-JMJD5 to immobilised bulk histone or synthetic peptides. The following applies: C-terminal biotin peptide on SA chip or bulk histone on CM5 chip, c-JMJD5 injected, room temperature. How it is done:
(§1) Data were integrated and scaled using the HKL2000 suite of programs.
(§2) 10 μg/ml calf bulk histone was dissolved in coating buffer (50 mM sodium acetate [pH 5.0]) and coated onto a CM5 chip (GE Healthcare). […] For peptides, 2 μg/ml synthetic peptide with C-terminal biotin was dissolved in PBS and coated onto a streptavidin coated SA chip (GE Healthcare). […] Similar procedures were carried out for JMJD5. All experiments are carried out at room temperature.
For orientation: SPR reads the build-up and loss of mass on a sensor chip optically.

In experiment [2] the target is T1, c-JMJD5. The following applies: fluorescence polarization, c-JMJD5, previous report; read-out: binding affinity; cited from earlier work. An excerpt: The binding affinities of various lysine binding domains, such as Chromodomains, PHD fingers, Tudor domains, etc., to lysine residues with and without methylation has been very well established. It is also true that the difference in binding affinity of Tudor domains to arginine with and without methylation is also marginal. The question here is whether c-JMJD5 or JMJD7 has different binding affinity depending on the methylation status of arginine. From the complex structure shown above, c-JMJD5 contains a binding pocket for methylarginine that is similar to those of Tudor domains (Fig ... || Clipping of histone tails, high turnover rates of histone in non-proliferating cells, arginine demethylation, and Pol II elongation control are highly contentious subjects in the transcription and epigenetic fields. Our previous novel discovery of clipping of arginine methylated histone tails by JMJD5 and JMJD7 sheds light on how these topics are intrinsically coupled. Data presented here not only reveal the underlying mechanism of novel enzymatic activities of JMJD5 and JMJD7, but also further corroborate our previous findings. Shortly after the release of our report, Shen et al. also repo ...
A general note: Polarisation of emitted light reports the rotation of a fluorescent probe.

In experiment [3] the target is T2, JMJD7 (Mus musculus, UniProt P0C872).
T2 construct: The final model contains residues 1–316; GST (N, cleaved yes); made in house
T2 sequence (P0C872 whole entry, the tested form may be a part): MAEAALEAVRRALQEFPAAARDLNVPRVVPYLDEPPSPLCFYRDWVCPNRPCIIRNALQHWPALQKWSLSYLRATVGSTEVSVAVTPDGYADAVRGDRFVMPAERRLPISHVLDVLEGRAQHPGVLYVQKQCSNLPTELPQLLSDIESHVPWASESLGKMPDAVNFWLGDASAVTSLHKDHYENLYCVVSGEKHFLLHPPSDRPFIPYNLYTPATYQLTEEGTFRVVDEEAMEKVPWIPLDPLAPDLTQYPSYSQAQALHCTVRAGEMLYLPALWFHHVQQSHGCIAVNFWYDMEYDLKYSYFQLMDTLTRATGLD
Kind of experiment: Biacore surface plasmon resonance binding of JMJD7 to immobilised bulk histone or synthetic peptides. The following applies: C-terminal biotin peptide on SA chip or bulk histone on CM5 chip, JMJD7 injected, room temperature. How it is done:
as §1, §2

T1 sequence (Q8N371 183-416): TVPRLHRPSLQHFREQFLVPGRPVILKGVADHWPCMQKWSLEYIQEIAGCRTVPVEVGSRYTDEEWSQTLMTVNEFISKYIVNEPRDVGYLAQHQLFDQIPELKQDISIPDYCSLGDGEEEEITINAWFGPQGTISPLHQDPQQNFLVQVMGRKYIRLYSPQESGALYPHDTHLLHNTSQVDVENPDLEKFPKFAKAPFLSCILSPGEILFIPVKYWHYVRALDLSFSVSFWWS

Turning to pH3: native form of H3 peptide (1–21), the “binding in words (SPR sensorgram)” value in experiment [1] and in experiment [3] was “non-specific binding” each time. In addition, in experiment [2], the Kd is roughly 7 µM.

These data come from publication PMC5818494, “Specific Recognition of Arginine Methylated Histone Tails by JMJD5 and JMJD7” (Scientific Reports, 2018).
